Test results reported in the RNAGym collection of RNA variant scans (doi:10.7554/elife.90254).

B1: LINE1-mini (parent)
chain: GGCAGAGCUCAACACAGCGUGGCAAAGUGGCUGUGGCUAGACUGCC

Variants of: B1
Test: self-cleavage, relative activity (ratio to wild type); higher = more cleavage; in vitro, sequencing; the parent is a self-cleaving ribozyme

Variant | self-cleavage
GGCAGAGCUCAACACGGCGUGGCAAAGUGGUUGUGGCUAGACUGCC | 0.03
GGCAGAGCUCCACACAGCGUGGCACAGUGGCUGUGGCUAGACUGCC | 0.09
GGCAGAGCUCAACACAUCGUGGCAAAGUGGCUGUGGCGAGACUGCC | 0.08
GGCAGAGCUUAACACAGCGUGGCAAAGUCGCUGUGGCUAGACUGCC | 0.2
GGCAGAGCUUAACACAGCGUGGCAAAGUAGCUGUGGCUAGACUGCC | 0.18
GGCAGAGCUCAACACAGCGUAGCAAAGUCGCUGUGGCUAGACUGCC | 0.63
GGCAGAGCUCAACACAGCGUGGAACAGUGGCUGUGGCUAGACUGCC | 0.61
GGCAGAGCUCAACAUAGCGUGGCAAAGUGGCUGUGACUAGACUGCC | 0.15
GGCAGAGCUCACCACAGCGUGGCAAAGUUGCUGUGGCUAGACUGCC | 0.02
GGCAGAGCUCAAAACAGCGUGGUAAAGUGGCUGUGGCUAGACUGCC | 0.16
GGCAUAGCUCAACACAGCGCGGCAAAGUGGCUGUGGCUAGACUGCC | 0.05
GGCAGAGUUCAACACUGCGUGGCAAAGUGGCUGUGGCUAGACUGCC | 0.13
GGCAGAGCUCAACACAGCGUGGCAAAGUAGCUGUGGCUAGACUGCG | 0.74
GGCAGAGCUCAACGCAGCGUGGCAAAGAGGCUGUGGCUAGACUGCC | 0.39
GGCAAAGCUCAACACAGCGUGGCAAAGUGGCUCUGGCUAGACUGCC | 0.09
GGCAGAGCUCAACACAGCGUUGCAAAGUGGCUGUGGAUAGACUGCC | 0.09
GACAGAGCUCAGCACAGCGUGGCAAAGUGGCUGUGGCUAGACUGCC | 0.14
GGCAGAGCUCAACACAGCGUGGCAAAGUGGCUGGGGCGAGACUGCC | 0.03
GGGAGAGCUCAACACAGCGUGGCAAAGUGGCUGUGGCUAGACUGGC | 1.97

Variant | self-cleavage
GGUAGAGCUCAACACAGCGGGGCAAAGUGGCUGUGGCUAGACUGCC | 0.28
GGCAGAGCUCAACUCAGCGUGGCAAAGUGGCUGUGGCUAAACUGCC | 0.05
GGCAGAGCUUAACACAGCGUGGCAAAGUGGCUGUGGCUAAACUGCC | 0.02
GGCAGAGCUCAACACAGGGUGGCAAAGUGGCUGUGGCUAGACGGCC | 0.13
GGCCGAGCUCAAGACAGCGUGGCAAAGUGGCUGUGGCUAGACUGCC | 0.17
GGCAGAGCUCGACACAGCGUGGCAAAGUGGCUUUGGCUAGACUGCC | 0.03
GGCCGAGCUCAACACAGCGUGGCAAAGUGGAUGUGGCUAGACUGCC | 0.14
GGCAGAGCUCAACACAGCGUGGCACAGUGGCUGUGCCUAGACUGCC | 0.07
GGCAGAGGUCAACACAGCGUGGCAAAGUGGCUGUGGCUAGAUUGCC | 0.09
GGCAGAGCUCAACACGGCGUGGCAAAGUGGCUGUGGAUAGACUGCC | 0.08
GGCAGAGCAUAACACAGCGUGGCAAAGUGGCUGUGGCUAGACUGCC | 0.08
GGCAGAGCUAAACACAGCGUGGCAAAGUGGCUGUCGCUAGACUGCC | 0.02
GGCAGAGCUAAACACAGCGUGGCAAAGUGGAUGUGGCUAGACUGCC | 0.03
GGCAGAGCUCAACACAGCGUAGCAAAGUGGCUGUUGCUAGACUGCC | 0.35
GGCAGAGCACAACACAGCGUGGCAAGGUGGCUGUGGCUAGACUGCC | 0.09
GGCAGAGCUCAACACGGCGUGGCAACGUGGCUGUGGCUAGACUGCC | 0.84
GGCAGAGGUCAACACAGCGUCGCAAAGUGGCUGUGGCUAGACUGCC | 0.06
GGCAGAGCUCAACACAUCGUGGCAAAGUGGCUGUGGCUAAACUGCC | 0.05
GGCAGAACUCAACACAGCGUGGCAAAGUGGCUGUGGCUAGCCUGCC | 0.21

Variant | self-cleavage
GGCAGAGCUCAACAAAGCGUGGCAAAGUGGCCGUGGCUAGACUGCC | 0.07
GGCAGAGCCCAACACAGCGUGUCAAAGUGGCUGUGGCUAGACUGCC | 0.02
GGCAGAGCUCAACACAGCGUGGCAAAGUGGCUUUGGCUUGACUGCC | 0.15
GGCAGACCACAACACAGCGUGGCAAAGUGGCUGUGGCUAGACUGCC | 0.09
GGCAGAGCUGACCACAGCGUGGCAAAGUGGCUGUGGCUAGACUGCC | 0.03
GGCAGCGCUCAACACAGCGUGGCAAAGUGGCUGUGGCUAGGCUGCC | 1.17
GGCAGAGCUCAACGCAGCGUGGCAAAGUGGCUGUGGCUAGAAUGCC | 0.08
GGCAGAGCUCAACACAGCGUGGCAAAGUGGGUGUGGCUAGACUGCU | 0.07
GGCUGAGCUCAACACAGCGUGGCGAAGUGGCUGUGGCUAGACUGCC | 0.26
GGCAGAGCUCAACUCACCGUGGCAAAGUGGCUGUGGCUAGACUGCC | 0.22
GGAAGAGCUCAACACAGCGUGGCAAAGUGGCUGUGGAUAGACUGCC | 0.35
GGCAGAGCUCAACACAGCGUGGCGAAGUGGCUGUGGCGAGACUGCC | 0.03
GGAAGAGCUCAACACAGCGUGGCAAAGAGGCUGUGGCUAGACUGCC | 0.32
GGCAGAGCUCAACACAGCGUGGCAAAGUGUCUGUGGCUGGACUGCC | 0.09
GGCAGAGCUCAACACCGCGUGGCAAAGUGGCAGUGGCUAGACUGCC | 0.13
GGCAGAGCUCAACACAGCGUGGCAAAGUGGCUGUGGCAAGACUACC | 0.28
GGCAGAGCUCAACAAAGCGUGGCAAAGUGGCUGUGGCUAGACUCCC | 0.04
GGCAGAGCUCAACAAAGCGUAGCAAAGUGGCUGUGGCUAGACUGCC | 0.16
